Consider 1 substance from publication doi:10.1101/2021.05.01.442157.

The assay deals with amyloid β precursor-like protein 1 (Aplp1), on transfected SH-SY5Y cells (UniProt Q03157). The experiment in a line: cell surface-binding assay.
Sequence of UniProt Q03157 (Q03157 39-654): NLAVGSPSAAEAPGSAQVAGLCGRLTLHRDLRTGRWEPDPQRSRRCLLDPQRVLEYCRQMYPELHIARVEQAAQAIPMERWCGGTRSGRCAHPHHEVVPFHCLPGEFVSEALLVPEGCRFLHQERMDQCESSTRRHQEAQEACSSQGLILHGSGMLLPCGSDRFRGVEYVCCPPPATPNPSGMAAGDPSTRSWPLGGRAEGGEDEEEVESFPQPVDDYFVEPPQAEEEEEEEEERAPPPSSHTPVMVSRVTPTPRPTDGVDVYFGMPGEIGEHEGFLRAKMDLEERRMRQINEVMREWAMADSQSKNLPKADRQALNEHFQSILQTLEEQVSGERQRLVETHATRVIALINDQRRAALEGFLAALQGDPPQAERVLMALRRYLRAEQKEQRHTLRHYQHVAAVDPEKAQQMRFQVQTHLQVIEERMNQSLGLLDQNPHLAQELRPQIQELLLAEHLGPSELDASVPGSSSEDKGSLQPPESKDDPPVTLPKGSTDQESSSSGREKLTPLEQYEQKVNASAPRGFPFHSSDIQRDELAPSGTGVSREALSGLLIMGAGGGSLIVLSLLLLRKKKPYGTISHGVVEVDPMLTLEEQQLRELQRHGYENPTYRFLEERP

Turning to β-amyloid-biotin PFF (peptide), the Kd (in general, the equilibrium constant for the complex coming apart) was above 3000 nM.
